From patent publication US20260250320A1, “LIPIDATED PEPTIDE INHIBITORS OF INTERLEUKIN-23 RECEPTOR” (Janssen Pharmaceutica NV, priority 2023, published 2026)
Values belong to the molecule of their own block, whether it stands above or below them. *1 amine or outer side, *2 acyl side, *3 side chain or, on linkers, in order; H or OH if unused. Where a SMILES comes first, the peptide text is derived from it. Bridges are numbered along the chain shown (N, C = ends). Primed or numbered codes have the meaning given here. Where no end group is shown, it is not given here. Side-chain parts run from the residue outwards. [ ]: non-standard residue; d: D form. The star is where a group is joined. ξ: configuration not given here. code d = side-chain group of K(d): lysine given as (2R)-2-(4-((5-amino-5-carboxypentyl)amino)-4-oxobutanamido)-3-carboxy-N,N,N-trimethylpropan-1-aminium, C[N+](C)(C)C[C@@H](CC(=O)O)NC(=O)CCC(=O)*; X33 = C[N+](C)(CCNC(=O)CCOCCOCCOCCOCCOCCOCCOCCOCCOCCOCCOCCOCCNC(=O)CC[C@H](CC(=O)CCCCCCCCCCCCCCCCC(=O)O)C(=O)O)CC(=O)*; Me3N+(CH2)2O(CH2)2O(CH2)2CO = C[N+](C)(C)CCOCCOCCC(=O)*; PEG2′ = PEG2 spacer unit (not further defined); Trp(7-Me) = Cc1cccc2c(C[C@H](N)C(=O)O)c[nH]c12; γGlu = O=C(O)[C@H](CCC(=O)[*:2])N[*:1]; 2Nal = N[C@@H](Cc1ccc2ccccc2c1)C(=O)O; AEF = NCCOc1ccc(C[C@H](N)C(=O)O)cc1; 3Pal = N[C@@H](Cc1cccnc1)C(=O)O; succiniccarn = not defined here; Lys(Me) = CNCCCC[C@H](N)C(=O)O; NMeK = CN[C@@H](CCCCN)C(=O)O; Pen = CC(C)(S)[C@H](N)C(=O)O; ξ3Pal = NC(Cc1cccnc1)C(=O)O; PEG2(3) = not defined here; Ac6c = NC1(C(=O)O)CCCCC1; PEG2″ = PEG2 spacer unit; dAEF′ = not defined here; Thp = NC1(C(=O)O)CCOCC1; Sar = CNCC(=O)O

Columns and labels:
IL-23R = biological target: T1, IL-23R (Homo sapiens, UniProt Q5VWK5); assay: IL23R Reporter Assay; type: cell-based; conditions: HEK293 cells containing IL-23R, IL-12Rβ1 and STAT-inducible firefly luciferase reporter; 10 ng/mL IL-23 (EC90); 5 h
T1 construct: HEK293 cells containing IL-23R, IL-12Rβ1 and a firefly luciferase reporter gene driven by a STAT-inducible promoter (Promega); host or cells: HEK293
T1 sequence (Q5VWK5 24-629): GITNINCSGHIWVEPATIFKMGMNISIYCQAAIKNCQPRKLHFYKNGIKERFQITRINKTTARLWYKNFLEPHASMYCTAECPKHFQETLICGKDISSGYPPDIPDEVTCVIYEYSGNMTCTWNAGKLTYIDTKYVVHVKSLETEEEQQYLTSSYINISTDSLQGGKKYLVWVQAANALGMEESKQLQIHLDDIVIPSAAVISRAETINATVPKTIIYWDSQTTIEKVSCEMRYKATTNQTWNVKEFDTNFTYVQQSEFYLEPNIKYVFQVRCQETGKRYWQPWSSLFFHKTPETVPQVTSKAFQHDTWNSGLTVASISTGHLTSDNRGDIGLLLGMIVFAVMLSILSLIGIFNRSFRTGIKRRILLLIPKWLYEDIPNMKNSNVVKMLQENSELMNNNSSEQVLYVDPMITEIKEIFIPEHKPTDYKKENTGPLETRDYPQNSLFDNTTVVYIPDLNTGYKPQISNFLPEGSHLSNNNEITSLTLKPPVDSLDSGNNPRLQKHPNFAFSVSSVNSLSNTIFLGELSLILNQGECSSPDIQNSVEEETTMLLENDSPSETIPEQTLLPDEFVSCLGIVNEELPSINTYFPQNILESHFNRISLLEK
How it was run: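 IC50 values were fitted with a 4-parameter Hill equation to luciferase signal, scaled between IL-23-only wells (0% inhibition) and 30 μM reference inhibitor (100%). The readout was a STAT-inducible reporter in IL-23R/IL-12Rβ1 HEK293 cells, stimulated with added 10 ng/mL IL-23 (EC90) for 5 h at 37° C and developed with BioGlo.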

[1] = test system: IL-23-stimulated phosphorylated STAT3 in peripheral blood mononuclear cells (PBMCs); assay: PBMC pSTAT3 Assay; type: cell-based; conditions: PBMCs from healthy donors; 30 min preincubation with peptide; IL-23 5 ng/mL for 30 min; phospho-STAT3 by MSD
How it was run: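 Phospho-STAT3 quantified by Meso Scale assay in lysates of PBMCs exposed to IL-23 (5 ng/mL, 30 min, 37 °C) after 30 min peptide pretreatment. Cells were cryopreserved donor PBMCs activated 4 days with anti-CD3 plus IL-1β (100 ng/mL) and starved ~4 h; IC50 reported.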

[2] = biological target: T2, interleukin-23 receptor (IL-23R) (UniProt Q5VWK5 24-629, limits assumed); assay: cell-based or functional assay
T2 sequence (looked up): T1 sequence (Q5VWK5 24-629)

IC50 (IL-23R): < 50 nM
Molecule: CC(=O)N(C)CCCC[C@@H]1NC(=O)[C@H](Cc2c[nH]c3c(C)cccc23)NC(=O)[C@H]([C@@H](C)O)NC(=O)[C@H](CC(=O)N(C)C)NC(=O)[C@@H](NC(=O)CCOCCOCC[N+](C)(C)C)C(C)(C)SSC(C)(C)[C@@H](C(=O)N[C@@H](Cc2ccc(OCCNC(=O)C[N+](C)(C)CCNC(=O)CCOCCOCCOCCOCCOCCOCCOCCOCCOCCOCCOCCOCCNC(=O)CC[C@H](CC(=O)CCCCCCCCCCCCCCCCC(=O)O)C(=O)O)cc2)C(=O)N[C@@H](Cc2ccc3ccccc3c2)C(=O)NC2(C(=O)N[C@@H](CCCCN(C)C(C)=O)C(=O)N[C@@H](CC(N)=O)C(=O)NC(Cc3cccnc3)C(=O)N(C)CC(=O)N(C)C)CCCCC2)NC1=O (stereo partly drawn) [compound 141, cPEG3aCO-Pen(3)-N(N(Me)2)-T-7MeW-K(NMeAc)-Pen(3)-AEF(SP6PEG12gEC18OH)-2Nal-THP-K(NMeAc)-N-3Pya-Sar-CON(Me)2] ({Me3N+(CH2)2O(CH2)2O(CH2)2CO}-[Pen]D(NMe2)T[Trp(7-Me)][Lys(Me)](Ac)[Pen][AEF](X33)[2Nal][Ac6c][Lys(Me)](Ac)N[ξ3Pal][Sar]-NMe2; disulfide 1-6)
IC50 [1]: < 0.5 nM

PBMC pSTAT3 IC50 [2]: < 0.5 nM
B1: SEQ ID NO: 20 (peptide)
peptide: succiniccarn-[dR][Pen]NT[Trp(7-Me)]K([PEG2′-PEG2′-γGlu-C18OH])[Pen][AEF][2Nal][Thp]EN[3Pal][Sar]-NH2
modifications: disulfide 2-7 (inferred); reading uncertain; also: printed as succiniccarn-r-Pen(3)-N-T-7MeW-K(PEG2PEG2gEC18OH)-Pen(3)-AEF-2Nal-THP-E-N-3Pya-Sar-CONH2

PBMC pSTAT3 IC50 [2]: < 0.5 nM
B2: SEQ ID NO: 2 (peptide)
peptide: XNTXXXXXXXNXXK
modifications: not fully specified; MeCO-Pen(3)-N-T-7MeW-K(Ac)-Pen(3)-AEF-2Nal-THP-K(Ac)-N-3Pya-Sar-K(PEG2NMePEG2NMegENMeC18Tetrazole)-CONH2

PBMC pSTAT3 IC50 [2]: < 0.5 nM
B3: SEQ ID NO: 19 (peptide)
peptide: Ac-[dR][Pen]NT[Trp(7-Me)]K[Pen][AEF][2Nal][Thp]EN[3Pal]X-NH2
modifications: disulfide 2-7 (inferred); not fully specified (residues 6, 14); printed as MeCO-r-Pen(3)-N-T-7MeW-K(PEG2PEG2gEC18OH)-Pen(3)-AEF-2Nal-THP-E-N-3Pya-NMeK(d)-CONH2

PBMC pSTAT3 IC50 [2]: < 0.5 nM
B4: SEQ ID NO: 49 (peptide)
peptide: succiniccarn-[dR][Pen]NT[Trp(7-Me)]K(Ac)[Pen][AEF][2Nal][Thp]K([PEG2″-PEG2″-γGlu-C18OH])N[3Pal][Sar]-NH2
modifications: disulfide 2-7 (inferred); reading uncertain; also: printed as succiniccarn-r-Pen(3)-N-T-7MeW-K(Ac)-Pen(3)-AEF-2Nal-THP-K(PEG2PEG2gEC18OH)-N-3Pya-Sar-CONH2

PBMC pSTAT3 IC50 [2]: < 0.5 nM
B5: SEQ ID NO: 48 (peptide)
peptide: Ac-[dR][Pen]NT[Trp(7-Me)]K(code d)[Pen][AEF][2Nal][Thp]K([PEG2′-PEG2′-γGlu-C18OH])N[3Pal][Sar]-NH2
modifications: disulfide 2-7 (inferred)

PBMC pSTAT3 IC50 [2]: < 0.5 nM
B6: SEQ ID NO: 16 (peptide)
peptide: Ac-[dR][Pen]NT[Trp(7-Me)]K(Ac)[Pen]X[2Nal][Thp]EN[3Pal][NMeK]-NH2
modifications: disulfide 2-7 (inferred); not fully specified (residues 8, 14); printed as MeCO-r-Pen(3)-N-T-7MeW-K(Ac)-Pen(3)-AEF(d)-2Nal-THP-E-N-3Pya-NMeK(PEG2PEG2gEC18OH)-CONH2

PBMC pSTAT3 IC50 [2]: < 0.5 nM
B7: SEQ ID NO: 23 (peptide)
peptide: Ac-[dR][Pen]NT[Trp(7-Me)]K(Ac)[Pen][dAEF′][2Nal][Thp]EN[3Pal][Sar]K([PEG2′-PEG2′-γGlu-C18OH])-NH2
modifications: disulfide 2-7 (inferred); reading uncertain; also: printed as MeCO-r-Pen(3)-N-T-7MeW-K(Ac)-Pen(3)-AEF(d)-2Nal-THP-E-N-3Pya-Sar-K(PEG2PEG2gEC18OH)-CONH2

PBMC pSTAT3 IC50 [2]: < 0.5 nM
B8: SEQ ID NO: 31 (peptide)
peptide: succiniccarn-[dR][Pen]NT[Trp(7-Me)]K(Ac)[Pen][AEF][2Nal][Thp]EN[3Pal][NMeK]([PEG2′-PEG2′-γGlu-C18OH])-NH2
modifications: disulfide 2-7 (inferred); reading uncertain; also: printed as succiniccarn-r-Pen(3)-N-T-7MeW-K(Ac)-Pen(3)-AEF-2Nal-THP-E-N-3Pya-NMeK(PEG2PEG2gEC18OH)-CONH2

PBMC pSTAT3 IC50 [2]: < 0.5 nM
B9: SEQ ID NO: 50 (peptide)
peptide: XNTXXXXXXXNXXK
modifications: MeCO-Pen(3)-N-T-7MeW-K(Ac)-Pen(3)-AEF-2Nal-THP-K(d)-N-3Pya-Sar-K(PEG2PEG2gEC18OH)-CONH2

PBMC pSTAT3 IC50 [2]: < 0.5 nM
B10: SEQ ID NO: 17 (peptide)
peptide: Ac-K[Pen]NT[Trp(7-Me)]K(Ac)[Pen]X[2Nal][Thp]EN[3Pal][Sar]-NH2
modifications: disulfide 2-7 (inferred); not fully specified (residues 1, 8); printed as MeCO-k(PEG2PEG2gEC18OH)-Pen(3)-N-T-7MeW-K(Ac)-Pen(3)-AEF(d)-2Nal-THP-E-N-3Pya-Sar-CONH2

PBMC pSTAT3 IC50 [2]: < 0.5 nM
B11: SEQ ID NO: 18 (peptide)
peptide: succiniccarn-[dR][Pen]K([PEG2(3)-PEG2(3)-γGlu-C18OH])T[Trp(7-Me)]K(Ac)[Pen][AEF][2Nal][Thp]EN[3Pal][Sar]-NH2
modifications: disulfide 2-7 (inferred); reading uncertain; also: printed as succiniccarn-r-Pen(3)-K(PEG2PEG2gEC18OH)-T-7MeW-K(Ac)-Pen(3)-AEF-2Nal-THP-E-N-3Pya-Sar-CONH2

PBMC pSTAT3 IC50 [2]: < 0.5 nM
B12: SEQ ID NO: 36 (peptide)
peptide: Ac-[dR][Pen]NT[Trp(7-Me)]K([PEG2′-PEG2′-γGlu-C18OH])[Pen][dAEF′][2Nal][Thp]EN[3Pal][Sar]-NH2
modifications: disulfide 2-7 (inferred); reading uncertain; also: printed as MeCO-r-Pen(3)-N-T-7MeW-K(PEG2PEG2gEC18OH)-Pen(3)-AEF(d)-2Nal-THP-E-N-3Pya-Sar-CONH2

PBMC pSTAT3 IC50 [2]: < 0.5 nM
B13: SEQ ID NO: 41 (peptide)
peptide: Ac-[dR][Pen]NT[Trp(7-Me)]K(Ac)[Pen][AEF][2Nal][Thp]K(code d)N[3Pal][NMeK]([PEG2′-PEG2′-γGlu-C18OH])-NH2
modifications: disulfide 2-7 (inferred)

PBMC pSTAT3 IC50 [2]: < 0.5 nM
B14: SEQ ID NO: 32 (peptide)
peptide: {C18OH-γGlu-PEG2′-PEG2′}-[dR][Pen]NT[Trp(7-Me)]K(Ac)[Pen][dAEF′][2Nal][Thp]EN[3Pal][Sar]-NH2
modifications: disulfide 2-7 (inferred); reading uncertain; also: printed as HOC18gEPEG2PEG2CO-r-Pen(3)-N-T-7MeW-K(Ac)-Pen(3)-AEF(d)-2Nal-THP-E-N-3Pya-Sar-CONH2

PBMC pSTAT3 IC50 [2]: < 0.5 nM
B15: SEQ ID NO: 45 (peptide)
peptide: [dR][Pen]NT[Trp(7-Me)]K(Ac)[Pen][AEF][2Nal][Thp]K(code d)N[3Pal][Sar]-NH2
modifications: disulfide 2-7 (inferred); not fully specified (N-terminus); printed as HOC18gEPEG2PEG2CO-r-Pen(3)-N-T-7MeW-K(Ac)-Pen(3)-AEF-2Nal-THP-K(d)-N-3Pya-Sar-CONH2
